Publication PMC5799255, “Histone H5 is a potent Antimicrobial Agent and a template for novel Antimicrobial Peptides” (Scientific Reports, 2018)

Assays:
[1] = system: Listeria monocytogenes biofilms; experiment: MBEC assay (MBEC Assay Biofilm Inoculator), anti-biofilm activity; type: cell-based
Protocol: (§1) The anti-biofilm activity of histone H5 against P. aeruginosa and L. monocytogenes biofilms was assessed using the MBEC Assay Biofilm Inoculator (formerly the Calgary Biofilm Device (CBD)).
(§2) The preparation of the bacterial suspension was the same as described in the determination of the MIC and MBC, except that the bacterial suspension was adjusted to 10^5 CFUs/ml in LB broth (BHI broth for L. monocytogenes), not PBS. Wells of an MBEC™ Assay Biofilm Inoculator (Innovotech, Edmonton, AB), which contains pegs projecting downwards from the lid that serve as a surface for biofilm formation, were inoculated with 150 µL of bacterial suspension. The plate was incubated for 24 hours at 37 °C (110 rpm) for Pseudomonas aeruginosa bacterial biofilms or for 72 hours at 22 °C (60 rpm) for Listeria monocytogenes. Following incubation, planktonic cells were rinsed away by switching the 96-peg lid to a sterile 96-well microplate with 200 μL of sterile PBS per well. Pegs with established biofilms were incubated with 200 μL of histone H5 (dissolved in sterile water, pH 7.4), in wells of another sterile 96-well microplate containing serially two-fold dilutions of H5. Solutions of gentamicin and kanamycin served as positive controls for P. aeruginosa and L. monocytogenes, respectively, whereas sterile water (pH 7.4) served as a negative control. The device was incubated for 2 hours at 37 °C, 110 rpm for P. aeruginosa and at 22 °C, 60 rpm for L. monocytogenes. The 96-peg lid was then rinsed twice as described above and placed on a sterile 96-well microplate with 200 μL of LB broth (P. aeruginosa) or BHI broth (L. monocytogenes) per well. The microplate was sonicated for 10 minutes (P. aeruginosa) or 30 minutes (L. monocytogenes) in order to dislodge the biofilms from the pegs, after which the peg-lid was replaced with a sterile, normal lid. This microplate was incubated in the EON microplate reader overnight at 37 °C (206 oscillations/min). The EON microplate spectrophotometer with Gen5 data analysis software (BioTek, Winooski, VT, USA) was used to monitor the growth of bacteria by measuring the optical density at 600 nm every 30 minutes for 24 hours (P. aeruginosa) or 48 hours (L. monocytogenes). The lowest histone H5 concentration without visible bacterial growth was designated as the minimum biofilm eradication concentration (MBEC). Additionally, a standard curve for the number of viable bacteria in the inoculum versus bacterial growth lag time was generated, since every microplate additionally contained wells with serially ten-fold diluted bacteria obtained from the uninhibited biofilm control (sterile H2O). Bacterial growth inhibition for each histone H5 concentration tested was determined from this standard curve.

[2] = system: Pseudomonas aeruginosa biofilms; experiment: as above; type: cell-based; conditions: 2 h treatment at 37 °C; for biofilm growth inhibition (log inhibition): versus untreated control, three independent trials, P < 0.04
Protocol: as §1, §2

Listeria monocytogenes = experiment: Scanning electron microscopy of treated planktonic bacteria; type: cell-based; conditions: 4 µg/mL, 3-hour incubation; three independent trials, each in duplicate
Protocol: (§3) In order to study the effect of histone H5 on bacterial membranes, Gram-positive and Gram-negative planktonic bacteria incubated with histone H5 were visualized by scanning electron microscopy (SEM). Representative SEM images of Listeria monocytogenes and Pseudomonas aeruginosa untreated (H2O control) and histone H5-treated bacterial cells are shown in Fig. 3. […] Similar observations were made in each of three independent trials, each performed in duplicate.
(§4) The same protocols as described in the preparation of the bacterial suspension and the broth microdilution assay were followed to prepare the histone H5-treated bacteria and the untreated control cells for SEM. After a 3-hour incubation of the 1:1 (v/v) ratio of planktonic bacteria and histone H5 (or 1:1 (v/v) ratio of planktonic bacteria and sterile H2O for the untreated control cells), 100 µL of this solution was filtered directly through an Isopore™ polycarbonate membrane filter ([…], EMD Millipore Co Cork, IRL) which was placed in a Swinny Stainless Steel 13 mm Filter Holder (EMD Millipore, MA, USA) connected to vacuum suction. The filter was then removed and placed onto a Kimwipe™ (Kimberly-Clark™ Professional Kimtech Science™) in a glass cell culture dish. The filters were fixed with 5% glutaraldehyde in 0.1 M sodium cacodylate, pH 7.5 (VWR, Radnor, PA, USA) overnight at 4 °C. […]

Pseudomonas aeruginosa = experiment: as above; type: cell-based; conditions: 4 µg/mL, 3-hour incubation; three independent trials, each in duplicate
Protocol: as §3, §4

[3] = Circular dichroism (CD) secondary structure analysis, CDSSTR deconvolution; type: physicochemical; conditions: for α-helix: room temperature, average of two independent measurements
Protocol: The secondary structure of histone H5 and the three preparations of histone H5-derived peptide H5(61–90) was investigated in different environments: sterile H2O, pH 7.4 (aqueous environment) and 30 mM SDS (mimicking the negatively charged bacterial membrane environment), by circular dichroism (CD) spectroscopy. […] Deconvolution of the spectral data with the CDSSTR program estimated the secondary structural components (α-helix, β-sheet, turns, etc.) of each peptide (Table 8). […] However, the α-helical proportions in the presence of 30 mM SDS were 76.9%, 84.2%, 75.5% and 84.7% for histone H5, H5(61–90) V1, H5(61–90) V2 and H5(61–90) V3, respectively.
The protocol followed for circular dichroism spectrometry was based on previously described methods. Circular dichroism (CD) measurements were performed using a Jasco-715 Spectropolarimeter (Japan Spectroscopic Co., Tokyo), in which the wavelengths scanned were 185 to 260 nm, using a scan speed of 100 nm/min, a bandwidth and data pitch of 1.0 nm, with a quartz cell (0.1 cm path length). Histone H5 and histone H5-derived peptides were dissolved in sterile ddH2O, pH 7.4, or 30 mM SDS. The CD spectrum of sterile ddH2O (buffer of the samples) was used as the blank. Each CD spectrum represents the average of two independent measurements, each in quintuplicate. The CD data was converted to molar ellipticity [θ], which was calculated using the following equation:1 [θ]=CDinmdeg/(10×pathlengthincm×Cr) where Cr = number of residues x molar concentration (mol/L).
In order to estimate secondary structure content, averaged CD spectra for each peptide were analysed using the CDSSTR software. This program analyzes the molar ellipticity [θ] values at each wavelength and compares them with a library of known protein secondary structures (α-helix, β-sheet, turns, etc.) in order to estimate the percentages of the various secondary structural components of the tested peptide samples.

B1: histone H5: erythrocyte-specific linker histone purified from chicken erythrocytes, 190 amino acids (protein, UniProt P02259 2-190, looked up)
Histone H5: TESLVLSPAPAKPKRVKASRRSASHPTYSEMIAAAIRAEKSRGGSSRQSIQKYIKSHYKVGHNADLQIKLSIRRLLAAGVLKQTKGVGASGSFRLAKSDKAKRSPGKKKKAVRRSTSPKKAARPRKARSPAKKPKATARKARKKSRASPKKAKKPKTVKAKSRKASKAKKVKRSKPRAKSGARKSPKKK
In the case of B1, the MBEC/MIC ratio ([1]; MBEC 19.1 ± 13.1 µg/mL versus planktonic MIC) is reported as roughly 5 fold, the MBEC ([1]; biofilm grown 72 h at 22 °C on pegs, 2 h treatment at 22 °C, recovery growth OD600 48 h in BHI broth, mean ± SD, n = 3) is reported as 19.1 ± 13.1 µg/mL and the “biofilm growth inhibition (log inhibition)” value ([2]; 32 µg/mL) is reported as 0.7 ± 0.2 log inhibition. The “biofilm growth inhibition (log inhibition)” value ([2]; 64 µg/mL) was 1.6 ± 0.5 log inhibition, the “biofilm growth inhibition (log inhibition)” value ([2]; 128 µg/mL) was 2.3 ± 0.9 log inhibition and the MBEC ([2]; biofilm grown 24 h at 37 °C on pegs, recovery growth OD600 24 h in LB broth, highest concentration 128 µg/mL, n = 3) was greater than 128 µg/mL. The “bacterial cell morphology by SEM” value (Listeria monocytogenes) was “Multiple indentations in the bacterial membrane, membrane wrinkling and pronounced deformations”, the “bacterial cell morphology by SEM” value (Pseudomonas aeruginosa) was “indentations in the bacterial membrane, small pore formation” and the “Random Coil” value ([3]; 30 mM SDS, CD) was 8.9%. The Turns ([3]; 30 mM SDS, CD) was 4.5%, the β-sheet ([3]; 30 mM SDS, CD) was 9.7% and the α-helix ([3]; 30 mM SDS, CD 185-260 nm) was 76.9%. For the same molecule, the “Random Coil” value ([3]; sterile ddH2O pH 7.4, CD) was 32.2%, the Turns ([3]; sterile ddH2O pH 7.4, CD) was 22.4% and the β-sheet ([3]; sterile ddH2O pH 7.4, CD) was 22.7%. It also gave a α-helix ([3]; sterile ddH2O pH 7.4, CD 185-260 nm) of 23.4%.
